Test results taken from the MegaScale stability set (Tsuboyama et al. 2023).

B1: EEHEE_rd4_0003 (parent)
chain: KKVTINGVEIKFNNPEEAVKFALELAKRLNLRIEFHGDQIKIE

Variants of: B1
Test: folding stability dG (cDNA display proteolysis); higher = more stable
Conditions: PBS, room temperature

Folding stability dG [kcal/mol], by site and new letter:
G37: M 2.52; C 2.68; H 2.42; F 2.48; N 2.41; D 2.45; Y 2.41; A 2.39; E 2.52; R 2.29; W 2.44; K 2.47; I 2.35; V 2.38; T 2.26; Q 2.44; P 2.49; S 2.35; L 2.45
D38: N 2.61; T 2.29; W 2.73; Q 2.25; K 2.15; R 2.01; C 3.49; L 2.33; Y 2.45; E 2.3; S 2.32; V 2.23; A 2.15; P 2.1; F 2.7; H 2.25; M 2.34; G 2.31; I 2.49
H36: L 2.88; R 2.52; Y 2.75; K 2.53; G 2.28; M 2.72; E 2.58; N 2.58; A 2.62; S 2.66; W 2.73; V 2.89; F 2.78; I 2.93; T 2.7; D 2.76; C 3.21; P 1.71; Q 2.56
E43: S 2.99; T 3.27; I 3.32; L 3.23; C 3.85; M 3.13; Y 3.45; Q 2.66; P 1.83; F 3.59; A 2.59; V 3.28; K 2.65; G 2.8; D 2.5; N 2.6; H 2.82; W 3.45; R 2.64
I40: P 1.24; G 1.37; D 1.39; Q 1.39; S 1.43; T 1.51; Y 1.64; A 1.49; R 1.25; M 1.92; F 1.78; C 2.22; W 2.02; V 2.07; E 1.44; L 2.1; H 1.56; K 1.5; N 1.44
L31: S 1.7; T 1.71; M 2.67; K 1.2; N 0.824; G 2.42; Y 2.14; H 1.4; Q 1.13; R 1.34; W 2.51; V 2.56; P 0.746; I 2.5; E 0.917; F 2.25
E34: P 1.48; Q 2.44; M 2.47; L 2.49; C 3.19; N 2.27; D 2.12; G 1.96; H 2.42; R 2.58; A 2.29; F 2.74; V 2.73; I 2.93; Y 2.77; K 2.42; T 2.86; W 2.62; S 2.77
Q39: N 2.82; F 2.91; I 3.05; E 2.92; W 3.07; G 2.52; T 3.22; D 2.64; K 2.33; P 1.77; S 2.75; L 2.95; V 3.18; Y 3.04; M 2.88; R 2.52; A 2.62; H 2.91; C 3.11
I42: R 1.44; D 1.36; S 1.47; N 1.74; G 1.26; V 2.31; Y 1.6; E 1.3; W 1.58; A 1.29; H 1.63; K 1.43; P 1.27; F 2.22; T 1.38; Q 1.24; L 3.07; M 2.25
